Reference: patent publication EP3349768A1

Molecular target: T1, Cathepsin G (CTSG) from mouse bone marrow cell lysates (mouse) (UniProt P28293)
T1 sequence (looked up): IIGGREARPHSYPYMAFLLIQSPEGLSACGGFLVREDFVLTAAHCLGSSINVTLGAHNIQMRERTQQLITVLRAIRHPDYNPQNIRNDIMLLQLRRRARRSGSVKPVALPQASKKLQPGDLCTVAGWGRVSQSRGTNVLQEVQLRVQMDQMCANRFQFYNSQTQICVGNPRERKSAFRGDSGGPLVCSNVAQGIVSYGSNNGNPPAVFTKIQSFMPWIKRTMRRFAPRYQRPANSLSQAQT
Test: cell-based or functional assay

B1: LKAb antibody (anti-Cathepsin G scFv, purified as scFv-Fc fusion protein) (Fc fusion, part only; not given: Fc tag, part only)
scFv, part: MAQVQLVQSGAEVKKPGASVKVSCKASGYTFTSYYMHWVRQAPGQGLEWMGGIIPIFGTGNYAQKFQGRVTITADESTSTAYMELSSLRSEDTAVYYCAREEEQQFSLDYWGQGTLVTVSSGGGGGLSNFMLTQPHSVSESPGKTVTISCTRSSGSIASNSVHWYQQRPGSAPTTVISENNQRPSGVPDRFSGSIDSSSNSASLTISGLKTEDEADYYCQSYDSNFHWVFGGGTQLTVLG
decrease in CTSG enzymatic activity (cleavage of a specific substrate, release of pNA): 50%
